PMC5012629 (International Journal of Nanomedicine, 2016)

Tests used:
[1] = molecular target: T1, Full length untagged human MDM2 (Murine double minute 2) (human, UniProt Q00987 1-491); experiment: SPR
[2] = molecular target: T1, Full length untagged human MDM2 (Murine …); experiment: atomic force spectroscopy

T1 sequence (Q00987 whole entry): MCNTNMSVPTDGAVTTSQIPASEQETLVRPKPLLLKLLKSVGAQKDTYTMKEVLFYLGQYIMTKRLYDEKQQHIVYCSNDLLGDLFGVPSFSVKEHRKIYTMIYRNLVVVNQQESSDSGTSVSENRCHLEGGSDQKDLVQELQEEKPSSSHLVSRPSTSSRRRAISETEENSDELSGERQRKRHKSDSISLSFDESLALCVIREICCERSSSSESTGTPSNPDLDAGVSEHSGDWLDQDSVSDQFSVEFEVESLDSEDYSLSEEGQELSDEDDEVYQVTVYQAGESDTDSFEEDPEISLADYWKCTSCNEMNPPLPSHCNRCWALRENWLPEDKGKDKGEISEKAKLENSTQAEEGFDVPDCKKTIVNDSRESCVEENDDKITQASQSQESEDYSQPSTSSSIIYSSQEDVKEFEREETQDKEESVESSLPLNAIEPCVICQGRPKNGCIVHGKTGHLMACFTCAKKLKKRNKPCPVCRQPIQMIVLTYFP

B1: Full length N-terminal glutathione S-transferase (GST)-tagged human MDM4 (Murine double minute 4) (natural protein, UniProt O15151 1-490, looked up)
chain: MTSFSTSAQCSTSDSACRISPGQINQVRPKLPLLKILHAAGAQGEMFTVKEVMHYLGQYIMVKQLYDQQEQHMVYCGGDLLGELLGRQSFSVKDPSPLYDMLRKNLVTLATATTDAAQTLALAQDHSMDIPSQDQLKQSAEESSTSRKRTTEDDIPTLPTSEHKCIHSREDEDLIENLAQDETSRLDLGFEEWDVAGLPWWFLGNLRSNYTPRSNGSTDLQTNQDVGTAIVSDTTDDLWFLNESVSEQLGVGIKVEAADTEQTSEEVGKVSDKKVIEVGKNDDLEDSKSLSDDTDVEVTSEDEWQCTECKKFNSPSKRYCFRCWALRKDWYSDCSKLTHSLSTSDITAIPEKENEGNDVPDCRRTISAPVVRPKDAYIKKENSKLFDPCNSVEFLDLAHSSESQETISSMGEQLDNLSEQRTDTENMEDCQNLLKPCSLCEKRPRDGNIIHGRTGHLVTCFHCARRLKKAGASCPICKKEIQLVIKVFIA
Kd [1]: 2000 nM | koff [2]: 0.02 ± 0.01 s⁻¹
